{"source": "patent US20220233650A1", "molecular_target": "recombinant Factor VIII Fc fusion protein (rFVIIIFc) (human) [IgG part: P0DOX5]", "experiment": "cell-based or functional assay"}
{"substance": "von Willebrand Factor (VWF) (from UniProt P04275 764-2813)", "values": [{"measurement": "percent of cells characterized as osteoclasts at day 7 after rFVIIIFc together with VWF (14.2% with rFVIIIFc alone)", "result": 45.7, "unit": "%"}]}
